Assay results reported in patent US20050222036A1, “Peptide compositions with effects on blood glucose” (priority 2000, published 2005).

How the values were obtained:
Format in all cases: in vivo, rat
rats [1] = test: Morris Water Maze (MWM), spatial learning in rats
Procedure: Spatial learning was assessed using the Morris Water Maze (Morris et al. Nature, 1982, 297: 681). Information was relayed via a tracker (HSV Image, Hampton, UK) to a personal computer, which was quantified by a specialized computer program (Water 2020, Hampton, UK). The acquisition study was performed as described previously. Animals were anaesthetized with isofluorane then administered peptide intra-nasally 20 min before testing. Rats were given four training trials. 48 h after training, a retention test was performed: rats were allowed to find the hidden platform for one trial. Mice initially had six trials without treatment to habituate them to the procedure. The following day, they were administered vehicle or [Ser(2)]exendin(1-9) (SEQ ID NO:1) and trained for an additional four trials with the platform in a new location. For a retention test, mice were given one trial to locate the platform the next day. Latency to find the platform was considered a measure of retention of spatial learning.
(§1) The elevated plus maze consists of two open and two closed arms; time spent and the number of entries into open arms are indicators of neophobic anxiety in rats. The number of entries and total time spent in the open arms were tabulated over 5 min by an observer blind to the experimental condition. Animals falling off the apparatus were eliminated from the study. For the intracerebroventricular (i.c.v.) studies, rats were implanted with a cannula (22 gauge, Plastics One, Roanoke, Va.) into the left ventricle (AP 0.8 mm, ML 1.6 mm, DV 3.5 mm from dura) then allowed at least 3-4 days to recover. The peptides were infused in a total volume of 2 μl (1 μl min −1) 25 min before training with two trials per day for 5 days. The visual platform test was conducted after the last training trial on day 5 in a different location of the pool.
In another series of experiments, rats (N=15-16) were pretreated with either Gilatide (10 μg/kg, 30 μg/kg, or 60 μg/kg) or vehicle and then trained for four trials in a Morris Water Maze. Two days following training, the rats were retested. Latency to find a submerged platform in the Morris Water Maze paradigm was measured.
Clinically approved treatments for cognitive impairment act primarily on the cholinergic system. The effects of intranasal GLP-1 and [Ser(2)]exendin(1-9) were compared with that of the cholinergic agonist arecoline on spatial learning in a modified version of the MWM (Setlow, B. et al. Learn. Mem, 2000. 7: 187). Rats were first administered vehicle, [Ser(2)]exendin(1-9), GLP-1 or arecoline, and trained for four trials to locate a submerged platform. They were then tested in a single retention trial 48 hours after initial training. There were no differences between treatments in acquisition (FIG. 10A).

rats [2] = test: Elevated plus maze test (anxiogenic effects); parameters: TIME Open Arm / TIME Closed Arm: unit not given here
Procedure: as §1

rats [3] = test: Elevated plus maze test (anxiogenic effects); parameters: TIME Open Arm / TIME Closed Arm: unit not given here; settings: 10 ng ICV

Question: How did the “latency (not shown)” value (rats [1]; 100 ng i.c.v.) turn out when “HAEGTFTSDVSSVLEGQAAKEFIAWLVKGR [GLP-1, glucagon-like peptide 1]” was run?
Answer: The value was “decrease latency”.

Question: What about the “distance traveled to locate the platform” value (rats [1]; i.c.v., vs control rats) of the same sequence?
Answer: The value was “significantly reduced distance traveled”.

Question: And the swimming speed (rats [1]; i.c.v., vs vehicle)?
Answer: The swimming speed was “decrease swimming speed”.

Question: And the “acquisition of spatial learning” value (rats [1]; modified MWM, intranasal (arecoline s.c.), four trials)?
Answer: The value was “did not affect acquisition of spatial learning”.

Question: What about the “ENTRIES Closed Arm” value (rats [2]; 10 μg IN) of the same sequence?
Answer: Its value is 4.8 ± 1.0.

Question: What about the “ENTRIES Open Arm” value (rats [2]; 10 μg IN) of the same sequence?
Answer: The value was 1.11 ± 0.3.

Question: What about the “TIME Closed Arm” value (rats [2]; 10 μg IN) of the same sequence?
Answer: Its value is 171.8 ± 10^+.

Question: And the “TIME Open Arm” value (rats [2]; 10 μg IN)?
Answer: The value was 11.6 ± 4.

Question: What about the “ENTRIES Closed Arm” value (rats [2]; 30 μg IN) of the same sequence?
Answer: Its value is 2.1 ± 0.4.

Question: What about the “ENTRIES Open Arm” value (rats [2]; 30 μg IN) of the same sequence?
Answer: Its value is 1.33 ± 0.4.

Question: What about the “TIME Closed Arm” value (rats [2]; 30 μg IN) of the same sequence?
Answer: The value was 197.2 ± 18.

Question: What about the “TIME Open Arm” value (rats [2]; 30 μg IN) of the same sequence?
Answer: Its value is 22.1 ± 10.

Question: And the “anxiogenic effect, time spent in closed arms” value (rats [2]; intranasal)?
Answer: The value was “anxiogenic”.

Question: And the “ENTRIES Closed Arm” value (rats [3])?
Answer: The value was 2.7 ± 0.5.

Question: What about the “ENTRIES Open Arm” value (rats [3]) of the same sequence?
Answer: The value was 0.7 ± 0.4.

Question: And the “TIME Closed Arm” value (rats [3])?
Answer: Its value is 198.3 ± 29.

Question: What about the “TIME Open Arm” value (rats [3]) of the same sequence?
Answer: The value was 16.7 ± 11.
